Residue numbers refer to the chain shown, from its start.
T1: C-terminal domain of the Zaire strain of Ebola virus nucleoprotein (EBOV NP^CT) (Ebola virus, Zaire strain (EBOV), UniProt P18272 641-739)
T1 construct: also called EBOV NT^CT; NP^CT EBOV Zaire
T1 sequence: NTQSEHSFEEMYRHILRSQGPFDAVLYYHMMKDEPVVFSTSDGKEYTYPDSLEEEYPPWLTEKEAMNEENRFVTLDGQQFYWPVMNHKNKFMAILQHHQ

B1: Protein GA1 (designed binder)
chain: TPAVTTYKLVINGRTLSGYTTTTAVDAATAEKVFKQYAYVHEVDGEWTYDDATKTFTVTEKPEKL
notes: also called pGA1; PGA1
B2: Protein G D (designed binder)
chain: B1 chain with Y37I, A38D, Y39M, H41S, E42S
notes: also called pGD; D 38IDMVSS43
B3: Protein G F (designed binder)
chain: B1 chain with Y39F, V40G, H41N, E42G
notes: also called pGF; F 38YAFGNG43
B4: Fab Lc scaffold variant ΔΔLKT (mutated; printed in Table 1 as AALKS) (Fab, V domains shown)
VH: EVQLVESGGGLVQPGGSLRLSCAASGFNISYSSIHWVRQAPGKGLEWVASIYSYSGYTSYADSVKGRFTISADTSKNTAYLQMNSLRAEDTAVYYCARSYWYHVGSWHYTGMDYWGQGTLVTVSS
VL: DIQMTQSPSSLSASVGDRVTITCRASQSVSSAVAWYQQKPGKAPKLLIYSASSLYSGVPSRFSGSRSGTDFTLTISSLQPEDFATYYCQQSSSSLITFGQGTKVEIKR
B5: MJ20 RESTV LRT-Fab (Fab, V domains shown)
VH: B4 VH
VL: B4 VL
notes: also called Fab MJ20
B6: MJ6 EBOV LRT-Fab (Fab, V domains shown)
VH: EVQLVESGGGLVQPGGSLRLSCAASGFNVYYYYIHWVRQAPGKGLEWVASISPYYGYTSYADSVKGRFTISADTSKNTAYLQMNSLRAEDTAVYYCARWSYDQSMSYKSGMDYWGQGTLVTVSS
VL: B4 VL with S91Y, S93Y, I96V
notes: also called Fab MJ6

Legend:
[1] = target: T2, Fab^S (Herceptin Fab scaffold variant with Lc E123S; Lc aa 123-127 SQLKS); test: SPR (preliminary results), Protein G variant against Fab scaffold
[2] = target: T2, Fab^S (Herceptin Fab scaffold variant …); test: SPR
[3] = target: T3, “Λ” Fab scaffold (4D5 scaffold with SEELQANK in the Lc region); test: SPR (preliminary results), Protein G variant against Fab scaffold
T3 construct: also called “Lambda” Fab scaffold
T3 sequence (light, as listed by the source): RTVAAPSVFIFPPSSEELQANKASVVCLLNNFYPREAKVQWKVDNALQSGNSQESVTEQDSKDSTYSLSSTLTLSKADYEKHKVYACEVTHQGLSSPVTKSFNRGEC

[4] = target: T4, Fab^H (Herceptin Fab scaffold with wt human kappa Lc; Lc aa 123-127 EQLKS); test: as above
T4 construct: also called Hkappa

Protein GA1 = target: B1; test: SPR, Fab Lc variant as analyte on His-tag-immobilized GA1
[5] = target: T1, C-terminal domain of the Zaire strain …; test: SPR, Fab as analyte on His-tag-immobilized antigen

Row | Binder | Kd [1] [nM] | Kd [5] [nM] | also measured
1 | B1 | 100 |  | Kd [2]: ~50 nM
2 | B2 | 80 |  | 
3 | B3 | 60 |  | Kd [3]: 50 nM; Kd [4]: 3 nM
4 | B4 |  |  | Kd (Protein GA1): 12 nM
5 | B5 |  | 3.4 | 
6 | B6 |  | 0.7 | koff [5]: 0.001 s⁻¹
